Experiment [1] addresses T1, CXCR4 on Caki-CXCR4 cells (Homo sapiens, UniProt P61073).
T1 construct: expressed in transfected cells; host or cells: Caki-CXCR4
The experiment can be described thus: Biotinylated SDF-1 displacement on Caki-CXCR4 cells (flow cytometry). It is filed as binding. The conditions noted are these: 30 nM biotinylated SDF-1; read-out: Ligand competition Biotin-SDF-1 IC50. The method, then:
CXCR4 Nanobodies were analysed for their ability to compete with the ligand CXCL12 (or SDF-1a) for receptor binding, by displacement of biotinylated SDF-1 on Caki-CXCR4 cells in flow cytometry. To this end serial dilutions of Nanobodies were incubated with 30 nM of biotinylated SDF-1 (R&D Systems Fluorokine kit) on cells, after which ligand binding was visualised using extravidin-PE. The biotin-SDF-1 competitor concentration used in this assay was below the EC50 value obtained in dose-titration, where IC50 values should reflect the Ki.
Background: Flow cytometry measures light scatter and fluorescence of single cells or particles in a stream.

Experiment [2] deals with T2, CXCR4 (membrane extracts of Hek-CXCR4 cells) (Homo sapiens, UniProt P61073).
T2 construct: expressed in transfected cells; host or cells: Hek293 (membrane extracts)
Kind of experiment: [125I]-CXCL12 radio-ligand displacement on membrane extracts of Hek-CXCR4 cells. It is filed as binding. The method, then: CXCR4 Nanobodies were analysed in radio-ligand displacement assay on membrane extracts of Hek-CXCR4 cells. The advantage of using the radiolabelled ligand is the increased sensitivity, and the low competitor concentration ensures the determination of Ki values (i.e. the real affinity constant) instead of measuring the IC50 value. This makes it possible to accurately determine the potencies of low affine Nanobodies, even though they may not reach full displacement.
Non-specific binding was determined in presence of 100 nM cold SDF-1. As controls full blocking CXCR4 Nanobodies 238D4 and 281A6 were included. The assay was performed three times, and average percentages of SDF-1 inhibition were calculated.

Experiment [3] concerns the target T1, CXCR4 on Caki-CXCR4 cells. Kind of experiment: Binding of CXCR4 Nanobodies to Caki-CXCR4 cells.
Experiment [4] deals with T3, CXCR4 on Jurkat E6-1 cells (Homo sapiens, UniProt P61073).
T3 construct: endogenous in cells; host or cells: Jurkat E6-1
The experiment can be described thus: CXCL12/SDF-1a induced chemotaxis of Jurkat E6-1 cells. The experiment is classed as cell-based. The conditions noted are these: monovalent CXCR4 Nanobodies, Table 4; read-out: Chemotaxis Jurkat IC50. The method, then: To verify if bispecific CXCR4-IL3Ra polypeptides show increased affinity and potency on cells expressing both receptors, a CXCR4-dependent functional assay was carried out. To this end SDF-1a dependent chemotaxis on Jurkat E6-1 (CXCR4+/IL3Ra−), and MOLM-13 cells (CXCR4+/IL3Ra+) was performed for direct comparison of cells expressing both or only one receptor. Since the functional blockade is only mediated via CXCR4, avidity by the simultaneous binding of the anti-IL3Ra Nanobody® is expected to translate into increased potency in inhibition of chemotaxis.
Bispecific polypeptides were analyzed for inhibition of CXCL12-induced chemotaxis on cells endogenously expressing CXCR4. As chemoattractant a concentration of 750 pM SDF-1a was used on 100,000 cells/well for the Jurkat cell line, and 500,000 cells/well for the MOLM-13 cell line. On each plate the corresponding monovalent CXCR4 Nanobody was included as reference, allowing to calculate the fold increase of the bispecific within each plate. As additional control 1:1 mixtures of monovalent Nanobodies were included. In Table 9 the respective IC50 values are shown (average of n=3 experiments).
To verify if bispecific CXCR4-IL-3Ra polypeptides show increased affinity and potency on cells expressing both receptors, a CXCR4-dependent functional assay was done. Since MOLM-13 cells express CD4 in conjunction with CXCR4 and CD123, the same experimental set-up was used as described for the CXCR4-CD123 bispecific Nanobodies (see: Example 1.5.5).
Dose-dependent inhibition of CXCL12-induced chemotaxis by the panel of bispecific CD4-CXCR4 Nanobodies was determined on Jurkat (CXCR4+/CD4 low), and Molm-13 cells (CXCR4++/CD4++). As reference anti-CXCR4 antibody 12G5 was included on each plate. […] Remarkably, bispecific constructs in the inverse orientation were able to block CXCR4 function, despite their reduced affinity for CXCR4 due to the unfavourable position, although the blockade was partial. The much larger potency increases observed with Nanobodies targeting the CD4 and CXCR4 combination is most likely related to the higher relative expression levels of CD4 compared to CD123 on the Molm-13 cells.

For experiment [5], the target named is Her3 (Homo sapiens, UniProt P21860). The conditions noted are these: read-out: affinity to Her3; cited from earlier work.
In experiment [6] the target is EGFR (Homo sapiens, UniProt P00533). To be noted: read-out: affinity to EGFR; cited from earlier work.
The target of experiment [7] is T4, recombinant human CD4 / HIV1 gp120 interaction (Homo sapiens, UniProt P01730).
T4 construct: purchased Invitrogen
Kind of experiment: gp120 - CD4 competition ELISA. The experiment is classed as binding. To be noted: 500 nM Nanobody. The method, then: Therefore a panel of CD4 Nanobodies was analysed for the capacity to block the interaction with the viral gp120 protein. Briefly, CD4 Nanobodies were analysed for the ability to compete with gp120 protein binding to recombinant CD4 in ELISA. Briefly, plates were coated with 20 ug/mL sheep anti-gp120 antibodies. lug/mL of HIV1 gp120 protein was captured for 1 hr at room temperature. Biotinylated recombinant human CD4 (Invitrogen) at 0.5 μg/mL was pre-incubated with 500 nM anti-CD4 Nanobodies, or control antibodies mouse anti-CD4 mAb B-A1 and F5 (Diaclone) and rabbit anti-CD4 pAb (ImmunoDiagnostic Inc) for 1hr, after which mixture was transferred to the coated plates and incubated for 1 hr. Detection of bound CD4 was done with Extravidin-peroxidase conjugate. […] Characteristics of Nanobody CD4 are found in Table 2.1.
Background: In an ELISA, binding on a coated surface is turned into a signal by an enzyme label.

In experiment [8] the test system is CD8+/CD4− gated and CD4+ gated T cells. The experiment can be described thus: Multi-colour FACS on TH1 activated T cells gated for CD8 or CD4. To be noted: donor D838; anti-flag-APC detection. The experiment is classed as binding, human. As for the experimental part: To elucidate if CD4-IL12R bispecific polypeptides preferentially bind to the CD4+/IL12R+ TH1 cell subset within the pool of T cells, Nanobody binding was analysed to a pool of activated T cells gated for either CD8 (detected by Anti-hu CD8 PE-Cy7 conjugated monoclonal antibody (BD 557746) or CD4 (detected by Anti-hu CD4 alexa Fluor 488-conjugated polyclonal antibody (R&D FAB8165G) in a multi-colour FACS experiment. Nanobody binding to the CD8+/CD4− gated cells and to CD4+ gated cells was determined using anti-flag-APC (Prozyme PJ255) detection. In this experiment TH1 activated T cells from the same donor (D838) as shown in FIG. 3.6 were used.

The test system of experiment [9] is cytotoxic CD8+ T cells. Kind of experiment: Binding to isolated CD8+ T cells (FACS). On the set-up: species or system human. To be noted: Nanobodies at 250 nM. As for the experimental part: The pool of activated T cells comprises both CD4+ T cells and CD8+ T cells. To confirm the specificity of the anti-CD4 Nanobody and to exclude binding to CD4-negative cells, binding was assessed to cytotoxic CD8+ T cells isolated from human PBMCs using the CD8+ T Cell Isolation Kit (Miltenyi Biotech, 130-096-495), resulting in 94% purity of CD8+ cells. Binding specificity experiments were carried out using Nanobodies at 250 nM. […] Similar data were obtained for the IL12Rβ2 and IL23R Nanobodies.

Entries after “also recorded” stand apart in the source; their conditions may differ.

T1 sequence (P61073 whole entry): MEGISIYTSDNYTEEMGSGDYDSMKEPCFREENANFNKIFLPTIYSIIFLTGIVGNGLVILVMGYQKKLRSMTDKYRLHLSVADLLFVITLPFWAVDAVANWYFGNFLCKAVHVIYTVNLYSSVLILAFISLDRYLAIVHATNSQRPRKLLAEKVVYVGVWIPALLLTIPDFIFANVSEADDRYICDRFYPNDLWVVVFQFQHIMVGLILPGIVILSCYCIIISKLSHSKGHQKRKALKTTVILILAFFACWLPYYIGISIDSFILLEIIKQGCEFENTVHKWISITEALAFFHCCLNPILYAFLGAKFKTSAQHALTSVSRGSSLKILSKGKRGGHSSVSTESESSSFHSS
T2 sequence (P61073 whole entry): as above
T3 sequence (P61073 whole entry): as above

B1: 238D4: full blocking control CXCR4 Nanobody (protein)
VHH: EVQLMESGGGLVQAGGSLRLSCAASGRTFNNYAMGWFRRAPGKEREFVAAITRSGVRSGVSAIYGDSVKDRFTISRDNAKNTLYLQMNSLKPEDTAVYTCAASAIGSGALRRFEYDYSGQGTQVTVSS
Consider B1, for which the IC50 (in general, the concentration at which inhibition is half-maximal) was determined as 2.1 nM in experiment [1] and 7.6 nM in experiment [4]. Moreover, the “efficacy of SDF-1 displacement” value in [2] (radio-ligand displacement) is recorded as “full efficacy”. For the same molecule, the Ki – broadly, a measure of affinity in units of concentration, obtained from inhibition or displacement – in [2] (read-out: Ligand competition [125I]-SDF-1 Ki, 75 pM [125I]-CXCL12) came to 5.4 nM. In addition, the EC50 – broadly, the midpoint of the concentration-response curve – in experiment [3] came to 3.4 nM.

B2: MEHD7945A: two-in-one Mab with specificity for EGFR and Her3 (antibody, chains of the INN, looked up, V domains shown)
VH: EVQLVESGGGLVQPGGSLRLSCAASGFTLSGDWIHWVRQAPGKGLEWVGEISAAGGYTDYADSVKGRFTISADTSKNTAYLQMNSLRAEDTAVYYCARESRVSFEAAMDYWGQGTLVTVSS
VL: DIQMTQSPSSLSASVGDRVTITCRASQNIATDVAWYQQKPGKAPKLLIYSASFLYSGVPSRFSGSGSGTDFTLTISSLQPEDFATYYCQQSEPEPYTFGQGTKVEIK
B2: the Kd was 0.39 nM in [5] and 1.9 nM in experiment [6].

B3: CD4#8: anti-CD4 Nanobody, SEQ ID NO: 25 (protein)
VHH: EVQLVESGGGSVQPGGSLTLSCGTSGRTFNVMGWFRQAPGKEREFVAAVRWSSTGIYYTQYADSVKSRFTISRDNAKNTVYLEMNSLKPEDTAVYYCAADTYNSNPARWDGYDFRGQGTQVTVSS
Regarding B3, the “inhibition of gp120 - CD4 interaction” value in [7] is recorded as “inhibit the interaction with gp120”. Also, the “binding to CD4+ gated and CD8+ gated T cells” value in experiment [8] is recorded as “strong binding to the CD4+ gated population; also recorded: only a low signal was observed to the CD8+ population”. Moreover, the “binding to isolated CD8+ T cells” value in [9] is listed as “No binding”.

Values taken from patent US20220242958A1, “BISPECIFIC NANOBODIES” (Ablynx N.V., priority 2013, published 2022).
